# In article PMC4425550 (Nature medicine, 2015):
# Where no end group is shown, it is not given here. The star is where a group is joined. Biotin = O=C1N[C@H]2[C@H](CS[C@H]2CCCCC(=O)*)N1
# T1: recombinant CDH15-Fc (UniProt P55291 61-606)
# T1 sequence (looked up): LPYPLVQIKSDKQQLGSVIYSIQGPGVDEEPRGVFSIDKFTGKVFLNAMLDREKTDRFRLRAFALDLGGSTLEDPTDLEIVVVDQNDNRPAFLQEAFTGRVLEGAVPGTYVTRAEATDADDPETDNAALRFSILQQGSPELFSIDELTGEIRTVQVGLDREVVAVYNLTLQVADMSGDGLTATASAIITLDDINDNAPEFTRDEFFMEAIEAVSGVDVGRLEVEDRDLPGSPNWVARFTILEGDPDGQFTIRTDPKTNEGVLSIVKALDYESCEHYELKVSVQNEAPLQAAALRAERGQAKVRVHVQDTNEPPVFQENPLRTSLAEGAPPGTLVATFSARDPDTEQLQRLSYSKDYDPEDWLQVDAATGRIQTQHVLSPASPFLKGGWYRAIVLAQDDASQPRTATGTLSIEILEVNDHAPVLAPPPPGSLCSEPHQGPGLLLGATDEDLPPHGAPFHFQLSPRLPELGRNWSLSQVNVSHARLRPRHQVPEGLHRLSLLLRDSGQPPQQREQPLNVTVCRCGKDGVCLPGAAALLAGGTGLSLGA
# Columns and labels:
# SPHK1/2 = experiment: T cell transmigration with SPHK1/2 inhibitor; type: cell-based, human; details: 5 μM on endothelial cells, 30 min 37°C, washed, n=3
# [1] = test system: S1P receptor on T cells; stimulated endothelial cells; experiment: T cell transmigration with exogenous S1P, B cell depleted PBL; type: cell-based, human
# [2] = test system: S1PR1 on memory T cells (CD3+CD45RO+); experiment: S1PR1 surface expression on memory T cells on ICAM-1; type: cell-based, human
# αLβ2 (LFA-1) = experiment: LFA-1 activation epitope; type: cell-based, human; details: S1P 10 µM after CXCL10 80 ng/ml, n=4
# SPHK1 = experiment: T cell transmigration with SPHK1 specific inhibitor; type: cell-based, human; details: 5 μM on endothelial cells, 30 min 37°C, washed, n=3
# S1P receptor = experiment: T cell transmigration with S1P receptor antagonist; type: cell-based, human; details: W146 10 μM, 30 min, washed; n=3–7
# [3] = test system: TNF-α&IFN-γ treated HUVEC; experiment: PBL trans-endothelial migration, static, HUVEC; type: cell-based, human
# B cells = details: T1D and rheumatoid arthritis; cited from earlier work
# recombinant CDH15-Fc = molecular target: T1, recombinant CDH15-Fc; experiment: SPR
# [4] = test system: endothelial cells (TNF-α and IFN-γ stimulated); type: cell-based, human
# [5] = test system: TNF-α&IFN-γ stimulated endothelial cells; experiment: PBL adhesion; type: cell-based, human; details: adiponectin or PEPITEM
# [6] = test system: lymphocytes from individuals with rheumatoid arthritis; endothelial cells; experiment: Ex vivo T cell transmigration, individuals with rheumatoid arthritis; type: cell-based, human; details: adiponectin 15 μg/ml or PEPITEM 10 ng/ml, n=7–8
# [7] = test system: lymphocytes from individuals with T1D; endothelial cells; experiment: Ex vivo T cell transmigration, individuals with type-1-diabetes; details: adiponectin 15 μg/ml or PEPITEM 10 ng/ml, n=9–22
# [8] = test system: TNF-α&IFN-γ treated HUVEC; experiment: PBL trans-endothelial migration under flow; details: adiponectin pre-treated PBL, n=6
# [9] = test system: α4β1, αLβ2, CXCR3, DP-2 on PBL; experiment: Expression/function of integrins, CXCR3 and DP-2 on PBL, flow cytometry; type: cell-based, human; details: adiponectin 15 μg/ml, n=3
# HDMEC = experiment: PBL transmigration across HDMEC, static; type: cell-based, human; details: TNF-α&IFN-γ stimulated HDMEC, n=3–4
# [10] = test system: TNF-α&IFN-γ stimulated HUVEC; experiment: Gene expression of adhesion molecules and chemokines in HUVEC, real-time PCR; type: cell-based, human; details: TNF-α and IFN-γ stimulated endothelial cells
molecule,measurement,setting,value
"CCCCCCCCCCCCC/C=C/[C@@H](O)[C@H](CO)N(C)C [N,N-Dimethylsphingosine]","ability of PEPITEM to inhibit T cell migration, SPHK1/2 inhibitor",SPHK1/2,abolished the ability of PEPITEM to inhibit T cell migration
"CCCCCCCCCCCCC/C=C/[C@@H](O)[C@@H](N)COP(=O)(O)O [S1P, Sphingosine-1-phosphate]",T cell migration on adding exogenous S1P,"[1]; S1P 0.0001 to 100 μM, 30 min, purified T cells / B cell depleted PBL, n=3–6",mimicked dose-dependently
same,T cell transmigration at total circulating S1P concentration,[1]; S1P ≈0.2 μM,inhibited T cell transmigration efficiently
same,surface S1PR1 in the presence of exogenous S1P,"[2]; CXCL10 80 ng/ml + S1P 10 μM, n=4",high expression was maintained
same,"affinity of LFA-1, binding to ICAM-1",αLβ2 (LFA-1),down-regulates the affinity
"CCCCCCCCCCCCCC#CC(=O)[C@@H]1COC(C)(C)N1C(=O)OC(C)(C)C [SPHK1 inhibitor, 2,2-dimethyl-4S-(1-oxo-2-hexadecyn-1-yl)-1,1-dimethylester-3-oxazolidinecarboxylic acid]","ability of PEPITEM to inhibit T cell migration, SPHK1 inhibitor",SPHK1,abolished the ability of PEPITEM to inhibit T cell migration
CCCCCCc1cccc(NC(=O)[C@H](N)CCP(=O)(O)O)c1 [W146],T cell migration in the presence of adiponectin and PEPITEM with S1P receptor antagonist,S1P receptor,released T cells from the inhibitory effects of both adiponectin and PEPITEM
CXCL10: chemokine,surface S1PR1 on memory T cells on ICAM-1,"[2]; CXCL10 80 ng/ml, n=6",rapid up-regulation of surface S1PR1
PEPITEM with a biotin conjugate on the N-terminus: PEPITEM with a biotin conjugate on the N-terminus (Biotin-SVTEQGAELSNEER),efficacy in functional migration assay,[3],full efficacy
"rituximab: monoclonal antibody, B cell depletion",clinical effect of B cell depletion,B cells,beneficial effects
Biotin-SVTEQGAELSNEER [N-terminus biotinylated PEPITEM (PEPtide Inhibitor of Trans-Endothelial Migration)],Kd,recombinant CDH15-Fc,109 µM
"adiponectin: circulating adipokine (protein, UniProt Q15848 19-244, looked up) Adiponectin: ETTTQGPGVLLPLPKGACTGWMAGIPGHPGHNGAPGRDGRDGTPGEKGEKGDPGLIGPKGDIGETGVPGAEGPRGFPGIQGRKGEPGEGAYVYRSAFSVGLETYVTIPNMPIRFTKIFYNQQNHYDGSTGKFHCNIPGLYYFAYHITVYMKDVKVSLFKKDKAMLFTYDQYQENNVDQASGSVLLHLEVGDQVWLQVYGEGERNGLYADNDNDSTFTGFLLYHDTN",T cell migration with supernatants from adiponectin stimulated B cells,"[4]; B cells 100,000, adiponectin 15 μg/ml 1 h",as effective as addition of B cells themselves
same,T cell migration after depleting B cells from PBL,"[4]; adiponectin treated, n=3–7",T cells were released from the inhibitory effects of adiponectin
same,T cell migration after adding back purified B cells,"[4]; adiponectin, n=3–7",could reconstitute the adiponectin-dependent inhibition of T cell migration
same,firm adhesion of PBL (surface adherent cells),[5],more cells were firmly adherent to the apical surface of the endothelium
same,"T cell migration, individuals with rheumatoid arthritis",[6],no longer an inhibition of T cell migration
same,"T cell migration, individuals with T1D",[7],no longer an inhibition of T cell migration
same,PBL transmigration under flow,[8],effects of adiponectin on PBL migration were seen
same,"expression and/or function of integrins (α4β1, αLβ2), CXCR3, DP-2 on PBL",[9],did not alter
same,PBL transmigration on HDMEC,HDMEC,evident
same,gene expression of adhesion molecules and chemokines,[10],did not modulate
same,PBL trans-endothelial migration,"[3]; TNF-α and IFN-γ stimulated HUVEC, static",dose-dependently inhibited
same,EC50 for inhibition of PBL trans-endothelial migration (mass concentration),"[3]; adiponectin, PBL pre-treated 1 h and washed, TNF-α and IFN-γ stimulated, static",0.94 µg/mL
